# Assay results reported in publication PMC10786891, “Massively parallel profiling of RNA-targeting CRISPR-Cas13d”.
# Positions count from the first letter of the chain named.
# T1: EsCas13d, nuclease-dead (Eubacterium siraeum, UniProt B0MS50, R295A;H300A;R849A;H854A)
# T1 sequence: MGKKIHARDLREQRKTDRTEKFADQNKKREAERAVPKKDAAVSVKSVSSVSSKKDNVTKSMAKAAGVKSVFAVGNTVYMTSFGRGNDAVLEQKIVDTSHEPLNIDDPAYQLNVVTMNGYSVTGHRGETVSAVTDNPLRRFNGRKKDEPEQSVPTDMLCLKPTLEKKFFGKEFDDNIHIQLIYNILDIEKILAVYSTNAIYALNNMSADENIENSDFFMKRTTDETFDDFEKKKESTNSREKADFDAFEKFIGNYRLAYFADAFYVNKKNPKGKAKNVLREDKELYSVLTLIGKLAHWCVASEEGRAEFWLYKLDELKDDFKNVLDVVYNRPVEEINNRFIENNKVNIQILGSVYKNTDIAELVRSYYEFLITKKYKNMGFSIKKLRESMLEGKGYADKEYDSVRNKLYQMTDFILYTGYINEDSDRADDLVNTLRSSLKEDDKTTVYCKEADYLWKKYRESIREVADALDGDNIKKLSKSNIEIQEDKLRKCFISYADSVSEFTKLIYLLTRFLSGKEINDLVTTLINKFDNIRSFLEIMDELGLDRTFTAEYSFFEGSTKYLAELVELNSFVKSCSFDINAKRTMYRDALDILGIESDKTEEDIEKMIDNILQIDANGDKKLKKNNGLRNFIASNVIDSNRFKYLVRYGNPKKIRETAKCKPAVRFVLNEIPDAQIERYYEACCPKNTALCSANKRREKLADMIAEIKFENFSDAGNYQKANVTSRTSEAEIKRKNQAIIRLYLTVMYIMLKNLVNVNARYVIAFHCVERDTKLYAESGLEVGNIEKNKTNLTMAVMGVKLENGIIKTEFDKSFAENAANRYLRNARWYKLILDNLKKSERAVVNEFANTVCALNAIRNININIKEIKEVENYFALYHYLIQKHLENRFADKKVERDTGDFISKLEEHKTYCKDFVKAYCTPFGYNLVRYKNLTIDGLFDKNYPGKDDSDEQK
# B1: target 2 MT 5'PFS UUG 3'PFS AGA (mixed)
# RNA 1: CACCCGUGCAAAAUUGCAGGGGUCUAAAACCUUCUCCAAAUUGUUUCAUCCU
# RNA 2: GGGAAUGGAUCCACAUCUACGAAUUCUUGAGGAUGAAACAAUUUGGAGAAGAGAAGAUCGGAAGAGCACACGU
# B2: target 2 MT 5'PFS AAU 3'PFS UGU (mixed)
# RNA 1: B1 RNA 1
# RNA 2: B1 RNA 2 with U27A, U28A, G29U, A52U, A54U
# B3: target 2 MT 5'PFS GUU 3'PFS UAA (mixed)
# RNA 1: B1 RNA 1
# RNA 2: B1 RNA 2 with U27G, G29U, A52U, G53A
# B4: target 2 MT 5'PFS CUC 3'PFS AGA (mixed)
# RNA 1: B1 RNA 1
# RNA 2: B1 RNA 2 with U27C, G29C
# B5: target 2 MT 5'PFS CUC 3'PFS AGC (mixed)
# RNA 1: B1 RNA 1
# RNA 2: B1 RNA 2 with U27C, G29C, A54C
# B6: target 2 MT 5'PFS AUU 3'PFS UGU (mixed)
# RNA 1: B1 RNA 1
# RNA 2: B1 RNA 2 with U27A, G29U, A52U, A54U
# B7: target 2 MT 5'PFS UUG 3'PFS AGU (mixed)
# RNA 1: B1 RNA 1
# RNA 2: B1 RNA 2 with A54U
# B8: target 2 MT 5'PFS GUU 3'PFS UAU (mixed)
# RNA 1: B1 RNA 1
# RNA 2: B1 RNA 2 with U27G, G29U, A52U, G53A, A54U
# B9: target 2 MT 5'PFS UGC 3'PFS CUC (mixed)
# RNA 1: B1 RNA 1
# RNA 2: B1 RNA 2 with U28G, G29C, A52C, G53U, A54C
# B10: target 2 MT 5'PFS CUC 3'PFS AGU (mixed)
# RNA 1: B1 RNA 1
# RNA 2: B1 RNA 2 with U27C, G29C, A54U
# B11: target 2 MT 5'PFS GUU 3'PFS UAC (mixed)
# RNA 1: B1 RNA 1
# RNA 2: B1 RNA 2 with U27G, G29U, A52U, G53A, A54C
# B12: target 2 MT 5'PFS CGA 3'PFS CUC (mixed)
# RNA 1: B1 RNA 1
# RNA 2: B1 RNA 2 with U27C, U28G, G29A, A52C, G53U, A54C
# B13: target 2 MT 5'PFS UGC 3'PFS CUU (mixed)
# RNA 1: B1 RNA 1
# RNA 2: B1 RNA 2 with U28G, G29C, A52C, G53U, A54U
# B14: target 2 MT 5'PFS UGC 3'PFS CUA (mixed)
# RNA 1: B1 RNA 1
# RNA 2: B1 RNA 2 with U28G, G29C, A52C, G53U
# B15: target 2 MT 5'PFS UUG 3'PFS AGC (mixed)
# RNA 1: B1 RNA 1
# RNA 2: B1 RNA 2 with A54C
# B16: target 2 MT 5'PFS UGC 3'PFS CUG (mixed)
# RNA 1: B1 RNA 1
# RNA 2: B1 RNA 2 with U28G, G29C, A52C, G53U, A54G
# B17: target 1 insG 3' of 4,insA 3' of 2 (mixed)
# RNA 1: CACCCGUGCAAAAAUGCAGGGGUCUAAAACUGAGCGGAUAACCUCUCUAUGG
# RNA 2: GGGAAUGGAUCCACAUCUACGAAUUCGUACCAUAGAGAGGUUAUCCGCGUCAACCGAGAUCGGAAGAGCACACGU
# B18: target 1 insA 3' of 21,insU 3' of 6 (mixed)
# RNA 1: B17 RNA 1
# RNA 2: GGGAAUGGAUCCACAUCUACGAAUUCGUACCAAUAGAGAGGUUAUCCUGCUCACCGAGAUCGGAAGAGCACACGU
# Target: T1, EsCas13d, nuclease-dead
# Test: crRNA (strand 1, pre-loaded); Mg2+; 40 mM Tris-HCl pH 7.5, 150 mM NaCl, 6 mM MgCl2, 1 mM DTT, 0.1% Tween-20, 0.2 mg/ml BSA; 25 C; 10 min per concentration, then washed
# Conditions: tags: His6-TwinStrep-SUMO cleaved; N-terminal SNAP kept (SNAP-Surface 488); label: 3' end held by stalled T7 RNA polymerase
row,Binder,Kd
1,B1,0.0079 ± 0.0005 µM
2,B2,0.0091 ± 0.0014 µM
3,B3,0.0153 ± 0.0033 µM
4,B4,0.00168 ± 0.00016 µM
5,B5,0.00198 ± 0.00025 µM
6,B6,0.0135 ± 0.0017 µM
7,B7,0.0145 ± 0.0022 µM
8,B8,0.0162 ± 0.0027 µM
9,B9,0.026 ± 0.006 µM
10,B10,0.0035 ± 0.0008 µM
11,B11,0.022 ± 0.004 µM
12,B12,0.0093 ± 0.0018 µM
13,B13,~0.11 µM
14,B14,0.016 ± 0.006 µM
15,B15,0.0137 ± 0.002 µM
16,B16,0.034 ± 0.009 µM
17,B17,0.00543 ± 0.00018 µM
18,B18,0.0203 ± 0.0015 µM
